{
  "source": "patent US20190241648A1",
  "about": "(STATEN BIOTECHNOLOGY B V, published 2019)",
  "binders": {"B1": {"name": "anti-ApoC3 antibody 14C7 (antibody, V domains shown)", "VH": "QVQVQESGPGLVKPSQTLSLTCTVSGGSITTNSYYWSWIRQPPGKGLEWMGAIDYSGDTYYSPSLKSRTSISRDTSKNQFTLQLTSVTPEDTAVYYCVSRIPTGEYWGQGTQVTVSS", "VL": "QTVVTQEPSLSVSPGGTVTLTCGLNSGSVTSSNYPDWYQQTPGQAPRLLIYNTNSRHSGVPSRFSGSISGNKAALTITGAQPEDEADYYCALYMGSDSVVFGGGTHLTVL", "notes": "it was detected with goat anti-human IgG (Fc); also called mAb 14C7; llama antibody 14C7"}},
  "assay_in_all_cases": "peptide microarray",
  "key": {"ApoC3 peptide … S48D": {"biological_target": "T1, ApoC3 peptide … S48D (human, not fully specified; cyclic constrained)", "T1 peptide": "ARGWVTDGFDSLK", "from_the_text": "(§1) Amino acids G41 and G46 were highly conserved; substitution of G41 by E, N or Q caused a decrease of spot intensities by ˜70% or higher, whereas exchange of G46 by N was hardly tolerated and resulting in 90% reduced spot intensities. […] Amino acid positions V43, D45 and K51 were also well conserved with a clear preference for the wild type amino acids and a certain tolerance particularly for conservative exchanges by Y, F and I (V43), A, E and K (D45) as well as by R (K51). […] Replacement of V43 by Y, however, increased spot intensity by two fold. Amino acid positions W42 and 48S were poorly conserved or even variable; both positions were susceptible for only a number of amino acid exchanges, and exchange by F, S and T (W42) or by E (S48) even caused a two- to three-fold increase of spot intensity. Amino acid positions A39 and R40 were variable.\n(§2) Pre: staining of one of the ApoC3 peptide microarrays was done with the secondary antibody goat anti-human IgG (Fe) DyLight680 (1:5000) and control antibody mouse monoclonal anti-HA (12CA5) DyLight800 (1:2000) to investigate background interactions of the secondary antibody with the antigen-derived peptides that could interfere with the main assays. Subsequent incubation of other ApoC3 peptide microarrays with antibody samples was followed by staining with secondary and control antibodies as well as read-out at scanning intensities of 7/7 (red/green). The additional HA peptides framing the peptide arrays were stained as internal quality control to confirm the assay quality and the peptide microarray integrity."}, "ApoC3 peptide … G46Y": {"biological_target": "T2, ApoC3 peptide … G46Y (human, thioether (positions not given here); also: cyclic constrained)", "T2 peptide": "ARGWVTDYFSSLK", "from_the_text": "as §1, §2"}, "ApoC3 peptide … W42G": {"biological_target": "T3, ApoC3 peptide … W42G (human, not fully specified (bridges); also: cyclic constrained)", "T3 peptide": "ARGGVTDGFSSLK", "from_the_text": "as §1, §2"}, "ApoC3 peptide … V43G": {"biological_target": "T4, ApoC3 peptide … V43G (human, not fully specified; cyclic constrained)", "T4 peptide": "ARGWGTDGFSSLK", "from_the_text": "as §1, §2"}, "ApoC3 peptide … D45E": {"biological_target": "T5, ApoC3 peptide … D45E (human, not fully specified (bridges); also: cyclic constrained)", "T5 peptide": "ARGWVTEGFSSLK", "from_the_text": "as §1, §2"}, "ApoC3 peptide … G41K": {"biological_target": "T6, ApoC3 peptide … G41K (human, also: cyclic constrained)", "T6 peptide": "ARKWVTDGFSSLK", "from_the_text": "as §1, §2"}, "ApoC3 peptide … S48H": {"biological_target": "ApoC3 peptide … S48H (human, cyclic constrained)", "from_the_text": "as §1, §2"}, "ApoC3 peptide … W42F": {"biological_target": "T7, ApoC3 peptide … W42F (human, not fully specified (bridges); also: cyclic constrained)", "T7 peptide": "ARGFVTDGFSSLK", "from_the_text": "as §1, §2"}, "ApoC3 peptide … G41Q": {"biological_target": "T8, ApoC3 peptide … G41Q (human, also: cyclic constrained)", "T8 peptide": "ARQWVTDGFSSLK", "from_the_text": "as §1, §2"}, "ApoC3 peptide … R40H": {"biological_target": "T9, ApoC3 peptide … R40H (human, not fully specified (bridges); also: cyclic constrained)", "T9 peptide": "AHGWVTDGFSSLK", "from_the_text": "as §1, §2"}, "ApoC3 peptide … T44M": {"biological_target": "T10, ApoC3 peptide … T44M (human, not fully specified (bridges); also: cyclic constrained)", "T10 peptide": "ARGWVMDGFSSLK", "from_the_text": "as §1, §2"}, "ApoC3 peptide … W42K": {"biological_target": "T11, ApoC3 peptide … W42K (human, not fully specified (bridges); also: cyclic constrained)", "T11 peptide": "ARGKVTDGFSSLK", "from_the_text": "as §1, §2"}, "ApoC3 peptide … S49D": {"biological_target": "ApoC3 peptide … S49D (human, cyclic constrained)", "from_the_text": "as §1, §2"}, "ApoC3 peptide … S49F": {"biological_target": "ApoC3 peptide … S49F (human, cyclic constrained)", "from_the_text": "as §1, §2"}, "ApoC3 peptide … S48C": {"biological_target": "T12, ApoC3 peptide … S48C (human, not fully specified; cyclic constrained)", "T12 peptide": "ARGWVTDGFCSLK", "from_the_text": "as §1, §2"}, "ApoC3 peptide … S48F": {"biological_target": "T13, ApoC3 peptide … S48F (human, not fully specified; cyclic constrained)", "T13 peptide": "ARGWVTDGFFSLK", "from_the_text": "as §1, §2"}, "ApoC3 peptide … S49K": {"biological_target": "T14, ApoC3 peptide … S49K (human, cyclic constrained)", "T14 peptide": "ARGWVTDGFSKLK", "from_the_text": "as §1, §2"}, "ApoC3 peptide … D45R": {"biological_target": "T15, ApoC3 peptide … D45R (human, cyclic constrained)", "T15 peptide": "ARGWVTRGFSSLK", "from_the_text": "as §1, §2"}, "ApoC3 peptide … L50R": {"biological_target": "T16, ApoC3 peptide … L50R (human, not fully specified (bridges); also: cyclic constrained)", "T16 peptide": "ARGWVTDGFSSRK", "from_the_text": "as §1, §2"}, "ApoC3 peptide … K51E": {"biological_target": "T17, ApoC3 peptide … K51E (human, thioether (positions not given here); also: cyclic constrained)", "T17 peptide": "ARGWVTDGFSSLE", "from_the_text": "as §1, §2"}, "ApoC3 peptide … T44Q": {"biological_target": "T18, ApoC3 peptide … T44Q (human, not fully specified (bridges); also: cyclic constrained)", "T18 peptide": "ARGWVQDGFSSLK", "from_the_text": "as §1, §2"}, "ApoC3 peptide … R40F": {"biological_target": "T19, ApoC3 peptide … R40F (human, not fully specified (bridges); also: cyclic constrained)", "T19 peptide": "AFGWVTDGFSSLK", "from_the_text": "as §1, §2"}, "ApoC3 peptide … W42S": {"biological_target": "T20, ApoC3 peptide … W42S (human, not fully specified (bridges); also: cyclic constrained)", "T20 peptide": "ARGSVTDGFSSLK", "from_the_text": "as §1, §2"}, "ApoC3 peptide … K51A": {"biological_target": "T21, ApoC3 peptide … K51A (human, thioether (positions not given here); also: cyclic constrained)", "T21 peptide": "ARGWVTDGFSSLA", "from_the_text": "as §1, §2"}, "ApoC3 peptide … S49I": {"biological_target": "T22, ApoC3 peptide … S49I (human, cyclic constrained)", "T22 peptide": "ARGWVTDGFSILK", "from_the_text": "as §1, §2"}, "ApoC3 peptide … G41D": {"biological_target": "T23, ApoC3 peptide … G41D (human, also: cyclic constrained)", "T23 peptide": "ARDWVTDGFSSLK", "from_the_text": "as §1, §2"}, "ApoC3 peptide … L50Q": {"biological_target": "T24, ApoC3 peptide … L50Q (human, not fully specified (bridges); also: cyclic constrained)", "T24 peptide": "ARGWVTDGFSSQK", "from_the_text": "as §1, §2"}, "ApoC3 peptide … W42E": {"biological_target": "T25, ApoC3 peptide … W42E (human, not fully specified (bridges); also: cyclic constrained)", "T25 peptide": "ARGEVTDGFSSLK", "from_the_text": "as §1, §2"}, "ApoC3 peptide … S48N": {"biological_target": "ApoC3 peptide … S48N (human, cyclic constrained)", "from_the_text": "as §1, §2"}, "ApoC3 peptide … K51I": {"biological_target": "T26, ApoC3 peptide … K51I (human, not fully specified; cyclic constrained)", "T26 peptide": "ARGWVTDGFSSLI", "from_the_text": "as §1, §2"}, "ApoC3 peptide … V43F": {"biological_target": "T27, ApoC3 peptide … V43F (human, not fully specified; cyclic constrained)", "T27 peptide": "ARGWFTDGFSSLK", "from_the_text": "as §1, §2"}},
  "note": "Ends that are not written are not given here.",
  "data": [
    {"binder": "B1", "values": [
      {"measurement": "% of binding to wild-type peptide", "setting": "ApoC3 peptide … S48D", "value": 71.6, "unit": "%"},
      {"measurement": "% of binding to wild-type peptide", "setting": "ApoC3 peptide … G46Y", "value": 0, "unit": "%"},
      {"measurement": "% of binding to wild-type peptide", "setting": "ApoC3 peptide … W42G", "value": 107, "unit": "%"},
      {"measurement": "% of binding to wild-type peptide", "setting": "ApoC3 peptide … V43G", "value": 0.12, "unit": "%"},
      {"measurement": "% of binding to wild-type peptide", "setting": "ApoC3 peptide … D45E", "value": 40, "unit": "%"},
      {"measurement": "% of binding to wild-type peptide", "setting": "ApoC3 peptide … G41K", "value": 18, "unit": "%"},
      {"measurement": "% of binding to wild-type peptide", "setting": "ApoC3 peptide … S48H", "value": 11.5, "unit": "%"},
      {"measurement": "% of binding to wild-type peptide", "setting": "ApoC3 peptide … W42F", "value": 242, "unit": "%"},
      {"measurement": "% of binding to wild-type peptide", "setting": "ApoC3 peptide … G41Q", "value": 27.1, "unit": "%"},
      {"measurement": "% of binding to wild-type peptide", "setting": "ApoC3 peptide … R40H", "value": 44.4, "unit": "%"},
      {"measurement": "% of binding to wild-type peptide", "setting": "ApoC3 peptide … T44M", "value": 0, "unit": "%"},
      {"measurement": "% of binding to wild-type peptide", "setting": "ApoC3 peptide … W42K", "value": 136, "unit": "%"},
      {"measurement": "% of binding to wild-type peptide", "setting": "ApoC3 peptide … S49D", "value": 0, "unit": "%"},
      {"measurement": "% of binding to wild-type peptide", "setting": "ApoC3 peptide … S49F", "value": 0.89, "unit": "%"},
      {"measurement": "% of binding to wild-type peptide", "setting": "ApoC3 peptide … S48C", "value": 56.8, "unit": "%"},
      {"measurement": "% of binding to wild-type peptide", "setting": "ApoC3 peptide … S48F", "value": 9.29, "unit": "%"},
      {"measurement": "% of binding to wild-type peptide", "setting": "ApoC3 peptide … S49K", "value": 3.23, "unit": "%"},
      {"measurement": "% of binding to wild-type peptide", "setting": "ApoC3 peptide … D45R", "value": 20.1, "unit": "%"},
      {"measurement": "% of binding to wild-type peptide", "setting": "ApoC3 peptide … L50R", "value": 0, "unit": "%"},
      {"measurement": "% of binding to wild-type peptide", "setting": "ApoC3 peptide … K51E", "value": 4.71, "unit": "%"},
      {"measurement": "% of binding to wild-type peptide", "setting": "ApoC3 peptide … T44Q", "value": 0, "unit": "%"},
      {"measurement": "% of binding to wild-type peptide", "setting": "ApoC3 peptide … R40F", "value": 70.8, "unit": "%"},
      {"measurement": "% of binding to wild-type peptide", "setting": "ApoC3 peptide … W42S", "value": 204, "unit": "%"},
      {"measurement": "% of binding to wild-type peptide", "setting": "ApoC3 peptide … K51A", "value": 10.1, "unit": "%"},
      {"measurement": "% of binding to wild-type peptide", "setting": "ApoC3 peptide … S49I", "value": 0, "unit": "%"},
      {"measurement": "% of binding to wild-type peptide", "setting": "ApoC3 peptide … G41D", "value": 19.4, "unit": "%"},
      {"measurement": "% of binding to wild-type peptide", "setting": "ApoC3 peptide … L50Q", "value": 0.12, "unit": "%"},
      {"measurement": "% of binding to wild-type peptide", "setting": "ApoC3 peptide … W42E", "value": 98.5, "unit": "%"},
      {"measurement": "% of binding to wild-type peptide", "setting": "ApoC3 peptide … S48N", "value": 48.5, "unit": "%"},
      {"measurement": "% of binding to wild-type peptide", "setting": "ApoC3 peptide … K51I", "value": 0.86, "unit": "%"},
      {"measurement": "% of binding to wild-type peptide", "setting": "ApoC3 peptide … V43F", "value": 68.9, "unit": "%"}
    ]}
  ]
}
